Earlier results, collected in PMC8671138.

Target: CD47 (Homo sapiens) (UniProt Q08722)
UniProt Q08722, sequence (Q08722 19-323): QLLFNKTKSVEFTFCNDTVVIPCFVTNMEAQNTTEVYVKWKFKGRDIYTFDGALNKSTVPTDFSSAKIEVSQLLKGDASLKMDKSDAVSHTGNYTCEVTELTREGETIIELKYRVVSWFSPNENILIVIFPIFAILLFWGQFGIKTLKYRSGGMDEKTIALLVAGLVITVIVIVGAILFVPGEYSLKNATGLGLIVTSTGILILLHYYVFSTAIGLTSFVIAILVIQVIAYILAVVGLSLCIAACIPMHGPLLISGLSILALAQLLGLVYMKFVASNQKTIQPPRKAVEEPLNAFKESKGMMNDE

- Kd: 2000 nM
Substance: SIRPα (from UniProt P78324)
